T1: HLA-A2402 molecule on T2-A24 cells (human, UniProt P04439-2 25-302 at identity 0.92))
T1 construct: whole, on cells; Cell-surface HLA-A2402 of T2-A24 transfectants; also called HLA-A24 molecules
T1 MHC heavy: not shown


Molecular target: T1, HLA-A2402 molecule on T2-A24 cells
Experiment: MHC stabilization assay, T2-A24 cells with 10 µM peptide, anti-HLA-A2402 mAb staining, flow cytometry

Binder	% MFI increase [%]
LYENNVITI (Synthetic peptide) [Ep185 (Ep-CAM 185-193 peptide LYENNVITI)]	79
NYKLAVNCF (Synthetic peptide) [Ep31 (Ep-CAM 31-39 peptide NYKLAVNCF)]	85
KYEKAEIKEM (Synthetic peptide) [Ep296 (Ep-CAM 296-305 peptide KYEKAEIKEM)]	24

The next lines start with the values.

% MFI increase [%]	Binder
29	LFHSKKMDL (Synthetic peptide) [Ep225 (Ep-CAM 225-233 peptide LFHSKKMDL)]
16	EMGEMHREL (Synthetic peptide) [Ep304 (Ep-CAM 304-312 peptide EMGEMHREL)]
57	YYVDEKAPEF (Synthetic peptide) [Ep250 (Ep-CAM 250-259 peptide YYVDEKAPEF)]

Source: patent US20100167321A1 (AICHI PREFECTURE, published 2010)
